Assay results taken from patent US10946092 (BEIJING MABWORKS BIOTECH, dated 2021).
Blank lines part the entries; values can stand above or below the binder they belong to.

What was measured:
[1] = molecular target: T1, recombinant mouse LAG3(ECD)-his (Sino Biological, Cat #: 53069-M08H) (mouse, UniProt Q61790 24-442); assay: ELISA, coated mouse LAG3-his
T1 construct: extracellular domain; Bought protein; also called Mouse LAG3-his; not shown: his tag
T1 sequence (looked up): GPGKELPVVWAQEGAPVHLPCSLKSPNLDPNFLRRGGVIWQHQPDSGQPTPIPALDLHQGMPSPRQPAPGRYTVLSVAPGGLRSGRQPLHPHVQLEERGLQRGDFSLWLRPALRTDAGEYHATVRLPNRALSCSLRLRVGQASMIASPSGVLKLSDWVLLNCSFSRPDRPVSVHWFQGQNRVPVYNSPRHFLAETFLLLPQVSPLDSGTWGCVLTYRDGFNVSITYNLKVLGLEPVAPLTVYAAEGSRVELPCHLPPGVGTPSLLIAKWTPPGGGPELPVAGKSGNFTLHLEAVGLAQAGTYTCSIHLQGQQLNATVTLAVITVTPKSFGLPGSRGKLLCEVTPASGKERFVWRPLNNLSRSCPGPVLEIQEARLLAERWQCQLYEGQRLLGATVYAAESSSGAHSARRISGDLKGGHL
Method: (§1) Species-cross-reactivity of the 12 LAG3 mAbs to monkey or mouse LAG3 was further tested by direct ELISA. Briefly, 50 µl of 500 ng/ml monkey LAG3(ECD)-hFc (ACRO, CN, Cat #: LA3-05252) or mouse LAG3-his (Sino Biological, CN, Cat #:53069-M08H) was coated on 96-well ELISA plates followed by incubation with 100 µl of serially diluted anti-LAG3 antibodies (starting from 40 µg/ml). Goat anti-mouse IgG conjugated with HRP (Sigma, US, Cat #: A9309-1 ml) was added then.

[2] = molecular target: T2, recombinant human LAG3(ECD)-his (Sino Biological, Cat #: 16498-H08H) (human, UniProt P18627 23-450); assay: ELISA, coated human LAG3(ECD)-his
T2 construct: extracellular domain; Bought protein; not shown: his tag
T2 sequence (looked up): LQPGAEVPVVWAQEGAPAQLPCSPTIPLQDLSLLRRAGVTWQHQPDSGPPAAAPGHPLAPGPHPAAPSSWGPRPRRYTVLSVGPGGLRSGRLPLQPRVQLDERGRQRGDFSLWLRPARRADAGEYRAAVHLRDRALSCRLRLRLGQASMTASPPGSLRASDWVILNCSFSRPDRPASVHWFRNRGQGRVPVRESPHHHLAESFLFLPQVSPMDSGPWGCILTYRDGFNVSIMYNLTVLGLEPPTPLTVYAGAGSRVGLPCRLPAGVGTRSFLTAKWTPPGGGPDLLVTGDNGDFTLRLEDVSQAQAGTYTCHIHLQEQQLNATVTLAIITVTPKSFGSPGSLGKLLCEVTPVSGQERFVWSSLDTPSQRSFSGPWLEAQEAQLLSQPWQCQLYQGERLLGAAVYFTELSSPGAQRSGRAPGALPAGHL
Method: The wells were blocked with 200 µl of blocking buffer (PBS containing 1% BSA, 1% goat serum, and 0.05% Tween 20) for 2 hours at room temperature, and then 100 µl of serially diluted anti-LAG3 antibodies (starting from 40 µg/ml) were added to each well and incubated for 1 hour at RT. Plates were washed for 3 times with PBST (PBS+0.05% Tween 20), added with Goat-anti-mouse IgG-HRP (Sigma, US, Cat #: A9309-1 ml) diluted 5000×, and incubated for 1 hour at RT. Plates were developed with freshly prepared Ultra-TMB (BD, US, Cat #:555214) for 5 minutes at RT. Absorbance was read on a SpectraMaxR i3X (Molecular Devies, US) at 450 nm.

[3] = molecular target: T3, recombinant monkey LAG3(ECD)-hFc (ACRO, Cat #: LA3-05252) (monkey (rhesus), UniProt A0A5F8A874 23-450); assay: ELISA, coated monkey LAG3(ECD)-hFc
T3 construct: Bought protein; also called rhesus LAG3(ECD)-hFc; rh LAG3(ECD)-hFc; not shown: human Fc (hFc) and any linker
T3 sequence: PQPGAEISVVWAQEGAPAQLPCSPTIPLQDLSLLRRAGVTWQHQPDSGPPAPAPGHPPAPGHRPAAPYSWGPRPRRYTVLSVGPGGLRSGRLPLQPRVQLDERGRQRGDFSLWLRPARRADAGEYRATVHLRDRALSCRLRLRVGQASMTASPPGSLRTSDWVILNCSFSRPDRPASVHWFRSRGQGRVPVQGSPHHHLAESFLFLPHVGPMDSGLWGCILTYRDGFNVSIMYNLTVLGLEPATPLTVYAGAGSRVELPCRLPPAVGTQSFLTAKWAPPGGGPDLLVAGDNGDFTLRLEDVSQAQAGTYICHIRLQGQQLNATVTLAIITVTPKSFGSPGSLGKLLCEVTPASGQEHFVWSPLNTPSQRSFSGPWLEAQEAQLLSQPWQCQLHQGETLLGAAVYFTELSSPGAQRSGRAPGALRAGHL
Method: as §1

[4] = molecular target: T4, hLAG-3-hIg fusion protein (human LAG-3 extracellular domain fused to human Fc); Sino Biological, Cat #: … (human, UniProt P18627 23-450); assay: FACS blocking assay; antibody titrated against 10 µg/ml hLAG-3-hIg binding to MHC II on Daudi cells
T4 construct: extracellular domain; Bought protein; also called LAG3 fusion protein; human LAG3(ECD)-hFc; not shown: human Fc
T4 sequence (looked up): T2 sequence (looked up)
Method: The mixtures were then added and incubated with 2 ×10^5 Daudi cells in 100 μl PBS buffer at 4° C. for 30 minutes. The cells were pelleted (three minutes, 400×g), washed twice with 1×PBS buffer and repelleted, and added and incubated with a recombinant PE-labeled F(ab')2 anti-hIgG Fc (1:200, Life Technologies, USA, Cat #: H10104) at 4° C. for 30 minutes, and washed once with 1×PBS. Analysis of […] binding was carried out with the FACS flow cytometer (BD Bioscience).

EC50 [2]: 4 nM | EC50 [3]: 2.3 nM | EC50 [4]: 13 nM
B1: mouse anti-LAG3 monoclonal antibody 101F4 (antibody, V domains shown)
VH: EVQLEQSGAELVRPGASVTLSCKASGYTFTDYEMHWVKQTPVYGLEWMGAIDPETGGIVYNQRFKGKAILTADKSSSTAYMELRSLTSEDSAVYYCTGAGWGYWGQGTTLTVSS
VL: DIVITQSPSSMYASLGERVTITCKASQDINSYLSWFQQKPGKSPKTLIYRANRLLDGVPSRFSGSGSGQDYSLTISSLEFEDMGLYYCLQYDEFPFTFGSGTKLEIK
binding result [1]: no binding (tested: starting from 40 µg/ml)

EC50 [2]: 1.92 nM | EC50 [3]: 0.23 nM | EC50 [4]: 9.3 nM
B2: mouse anti-LAG3 monoclonal antibody 134G10 (antibody, V domains shown)
VH: EVQLVESGGDLVKPGGSLKLSCAASGFTFSSFGMSWVRQTPDKRLEWVGIISSGGTYTFYPDILKGRFTISRDNAKNTLYLQMSSLKSEDTAMYYCARVYSDYDGRFDYWGQGTTLTVSS
VL: DIVMTQSPSSLSVSAGEKVTMNCKSSQSLLNSGNQKNYLAWYQQKPGQPPKLLIYGASTRESGVPDRFTGSGSGTDFTLTISSVQAEDLAVYYCQNDHSYPLTFGAGTKLELK
binding result [1]: no binding (tested: starting from 40 µg/ml)
